Test results reported in the supplement of paper PMC10567573.

B1: TRIM14 (parent)
chain: REQADSCREQLDIMNDLSNRVWSI

Variants of: B1
Assay: protein stability index of a GFP-peptide fusion (GPS, HEK-293T) (PSI 1-6); higher = more stable
Settings: c terminus: a fixed tail appended
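Also: lentivirally expressed fusions sorted by FACS into six bins by GFP to DsRed ratio, PSI derived from sequencing read proportions per bin multiplied by bin number.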

| Variant | protein stability index |
| --- | --- |
| REQADSCREQLDIMWDLSNRVWSI [N15W] | 2.68 |
| REQADSCREQLDIMGDLSNRVWSI [N15G] | 2.12 |
| REQADSCREQLDIMFDLSNRVWSI [N15F] | 2.39 |
| REQADSCREQLDIMSDLSNRVWSI [N15S] | 1.94 |
| REQADSCREQLDIMHDLSNRVWSI [N15H] | 2.54 |
| REQADSCREQLDIMKDLSNRVWSI [N15K] | 2.44 |
| REQADSCREQLDIMPDLSNRVWSI [N15P] | 2.18 |
| REQADSCREQLDIMQDLSNRVWSI [N15Q] | 1.89 |
| REQADSCREQLDIMCDLSNRVWSI [N15C] | 2.53 |
| REQADSCREQLDIMEDLSNRVWSI [N15E] | 2.76 |
| REQADSCREQLDIMRDLSNRVWSI [N15R] | 2.17 |
| REQADSCREQLDIMIDLSNRVWSI [N15I] | 2.33 |
| REQADSCREQLDIMLDLSNRVWSI [N15L] | 2.91 |
| REQADSCREQLDIMVDLSNRVWSI [N15V] | 2.14 |
| REQADSCREQLDIMYDLSNRVWSI [N15Y] | 1.96 |
| REQADSCREQLDIMTDLSNRVWSI [N15T] | 2.36 |
| REQADSCREQLDIMDDLSNRVWSI [N15D] | 2.69 |
| REQADSCREQLDIMADLSNRVWSI [N15A] | 2.25 |
| REQADSCREQLDIMMDLSNRVWSI [N15M] | 2.58 |
| REQADSCREQLDIMNDGSNRVWSI [L17G] | 2.96 |
| REQADSCREQLDIMNDVSNRVWSI [L17V] | 2.68 |
| REQADSCREQLDIMNDQSNRVWSI [L17Q] | 2.45 |
| REQADSCREQLDIMNDESNRVWSI [L17E] | 3.3 |
| REQADSCREQLDIMNDHSNRVWSI [L17H] | 2.71 |

| Variant | protein stability index |
| --- | --- |
| REQADSCREQLDIMNDISNRVWSI [L17I] | 2.59 |
| REQADSCREQLDIMNDWSNRVWSI [L17W] | 1.85 |
| REQADSCREQLDIMNDCSNRVWSI [L17C] | 2.53 |
| REQADSCREQLDIMNDDSNRVWSI [L17D] | 3.18 |
| REQADSCREQLDIMNDNSNRVWSI [L17N] | 2.56 |
| REQADSCREQLDIMNDSSNRVWSI [L17S] | 2.72 |
| REQADSCREQLDIMNDFSNRVWSI [L17F] | 2.13 |
| REQADSCREQLDIMNDASNRVWSI [L17A] | 2.46 |
| REQADSCREQLDIMNDTSNRVWSI [L17T] | 2.7 |
| REQADSCREQLDIMNDKSNRVWSI [L17K] | 2.59 |
| REQADSCREQLDIMNDMSNRVWSI [L17M] | 2.63 |
| REQADSCREQLDIMNDRSNRVWSI [L17R] | 2.25 |
| REQADSCREQLDIMNDYSNRVWSI [L17Y] | 2.1 |
| REQADSCREQLDIMNDPSNRVWSI [L17P] | 2.28 |
| REQADSCREQLDIMNDLVNRVWSI [S18V] | 1.99 |
| REQADSCREQLDIMNDLKNRVWSI [S18K] | 1.87 |
| REQADSCREQLDIMNDLHNRVWSI [S18H] | 1.77 |
| REQADSCREQLDIMNDLYNRVWSI [S18Y] | 2.07 |
| REQADSCREQLDIMNDLENRVWSI [S18E] | 2.75 |
| REQADSCREQLDIMNDLGNRVWSI [S18G] | 1.83 |
| REQADSCREQLDIMNDLQNRVWSI [S18Q] | 1.63 |
| REQADSCREQLDIMNDLINRVWSI [S18I] | 2.2 |
| REQADSCREQLDIMNDLTNRVWSI [S18T] | 2.05 |
| REQADSCREQLDIMNDLMNRVWSI [S18M] | 2.01 |

| Variant | protein stability index |
| --- | --- |
| REQADSCREQLDIMNDLCNRVWSI [S18C] | 2.3 |
| REQADSCREQLDIMNDLDNRVWSI [S18D] | 2.8 |
| REQADSCREQLDIMNDLPNRVWSI [S18P] | 2.35 |
| REQADSCREQLDIMNDLLNRVWSI [S18L] | 1.73 |
| REQADSCREQLDIMNDLRNRVWSI [S18R] | 1.64 |
| REQADSCREQLDIMNDLANRVWSI [S18A] | 2.29 |
| REQADSCREQLDIMNDLNNRVWSI [S18N] | 2.14 |
| REQADSCREQLDIMNDLFNRVWSI [S18F] | 1.48 |
| REQADSCREQLDIMNDLWNRVWSI [S18W] | 2.21 |
| REQADSCREQLDIMNDLSNRQWSI [V21Q] | 3.06 |
| REQADSCREQLDIMNDLSNRNWSI [V21N] | 2.97 |
| REQADSCREQLDIMNDLSNRRWSI [V21R] | 2.18 |
| REQADSCREQLDIMNDLSNRKWSI [V21K] | 2.69 |
| REQADSCREQLDIMNDLSNRSWSI [V21S] | 2.45 |
| REQADSCREQLDIMNDLSNREWSI [V21E] | 3.58 |
| REQADSCREQLDIMNDLSNRAWSI [V21A] | 2.96 |
| REQADSCREQLDIMNDLSNRFWSI [V21F] | 3.06 |
| REQADSCREQLDIMNDLSNRHWSI [V21H] | 2.69 |
| REQADSCREQLDIMNDLSNRWWSI [V21W] | 2.01 |
| REQADSCREQLDIMNDLSNRPWSI [V21P] | 3.01 |
| REQADSCREQLDIMNDLSNRLWSI [V21L] | 2.88 |
| REQADSCREQLDIMNDLSNRCWSI [V21C] | 2.41 |
| REQADSCREQLDIMNDLSNRMWSI [V21M] | 2.01 |
| REQADSCREQLDIMNDLSNRDWSI [V21D] | 3.92 |

| Variant | protein stability index |
| --- | --- |
| REQADSCREQLDIMNDLSNRGWSI [V21G] | 2.87 |
| REQADSCREQLDIMNDLSNRTWSI [V21T] | 2.76 |
| REQADSCREQLDIMNDLSNRIWSI [V21I] | 3.01 |
| REQADSCREQLDIMNDLSNRYWSI [V21Y] | 3.19 |
| REQADSCREQLDIMNALSNRVWSI [D16A] | 2.28 |
| REQADSCREQLDIMNNLSNRVWSI [D16N] | 1.63 |
| REQADSCREQLDIMNELSNRVWSI [D16E] | 2.06 |
| REQADSCREQLDIMNSLSNRVWSI [D16S] | 2.19 |
| REQADSCREQLDIMNRLSNRVWSI [D16R] | 2.85 |
| REQADSCREQLDIMNPLSNRVWSI [D16P] | 1.52 |
| REQADSCREQLDIMNWLSNRVWSI [D16W] | 2.04 |
| REQADSCREQLDIMNTLSNRVWSI [D16T] | 1.99 |
| REQADSCREQLDIMNKLSNRVWSI [D16K] | 3.35 |
| REQADSCREQLDIMNQLSNRVWSI [D16Q] | 2.18 |
| REQADSCREQLDIMNGLSNRVWSI [D16G] | 2.25 |
| REQADSCREQLDIMNMLSNRVWSI [D16M] | 1.61 |
| REQADSCREQLDIMNFLSNRVWSI [D16F] | 1.86 |
| REQADSCREQLDIMNLLSNRVWSI [D16L] | 1.68 |
| REQADSCREQLDIMNILSNRVWSI [D16I] | 1.77 |
| REQADSCREQLDIMNYLSNRVWSI [D16Y] | 2.01 |
| REQADSCREQLDIMNHLSNRVWSI [D16H] | 1.64 |
| REQADSCREQLDIMNCLSNRVWSI [D16C] | 1.8 |
